Experimental data as given in patent US4284553A, “Reversible method for covalent immobilization of biochemicals” (North Carolina State University at Raleigh, priority 1980, dated 1981).
Values belong to the compound of their own block, whether it stands above or below them.

What was measured:
[1] = system: CCOC(=O)[C@H](Cc1ccc(O)cc1)NC(=O)c1ccccc1; assay: purified protein, by the assay type; conditions: other: substrate BzTyrOEt
[2] = target: T1, α-Chymotrypsin (EC 3.4.21.1) from bovine pancreas, immobilized on thioester-derivatized glass beads (9.5 mg/g) (Bos taurus, UniProt P00766); assay: Hydrolysis of BzTyrOEt by α-chymotrypsin immobilized on thioester-glass beads (9.5 mg/g, after brief hydroxylamine treatment); assay type: biochemical; design: unit not given here; conditions: substrate BzTyrOEt; immobilized (9.5 mg/g)
T1 construct: purchased Miles Laboratories or Sigma Chemical Co; host or cells: bovine pancreas
Method: (§1) α-Chymotrypsin (EC 3.4.21.1) from bovine pancreas was obtained as a lyophilized powder from Miles Laboratories or Sigma Chemical Co. and used without further purification. All chemicals used were reagent grade or better.
(§2) Succinamidopropyl-derivatized glass was converted to the acyl chloride derivative by treatment with anhydrous thionyl chloride. Care was taken to prevent the introduction of water in each of these reaction steps. The reacion mixture was held at 70° C. for 1 hour. The solution was then cooled to 25° C., and excess thionyl chloride was drained from the beads, which were then rinsed thoroughly with dry dichloromethane. The beads were next covered with anhydrous 3-mercaptopropionic acid and again held at 70° C. for 1 hour. Following reaction, the excess acid was drained, and the derivatized beads were again washed with dichloromethane. […]
(§3) Hydrolysis of benzoly-L-tyrosine ethyl ester (BzTyrOEt) by α-chymotrypsin was assayed according to the method of Hummel, B. C. […] Reaction was initiated by addition of soluble enzyme to the reaction mixture, and reaction progress was monitored spectrophotometrically at 256 nm. […] Initial slopes were read directly from the recorder chart and kinetic constants were evaluated using a computer program to fit data directly to velocity versus substrate concentration curves.

[3] = target: T2, α-Chymotrypsin (EC 3.4.21.1) from bovine pancreas, immobilized on thioester-derivatized glass beads (20.2 mg/g) (Bos taurus, UniProt P00766); assay: Hydrolysis of BzTyrOEt by α-chymotrypsin immobilized on thioester-glass beads (20.2 mg/g); assay type: biochemical; design: unit not given here; conditions: substrate BzTyrOEt; immobilized (20.2 mg/g)
T2 construct: purchased Miles Laboratories or Sigma Chemical Co; host or cells: bovine pancreas
Method: as §1, §2, §3

Compound: α-Chymotrypsin (EC 3.4.21.1) from bovine pancreas, soluble enzyme released by hydroxylamine (thioacylated, about three chains per molecule) (Bos taurus)
Km ([1]; soluble enzyme released by hydroxylamine, pH 7.0): 3.35 mM

kcat /Km (app) [2]: 1.0
kcat /Km (app) [3]: 0.9
Compound: CCOC(=O)[C@H](Cc1ccc(O)cc1)NC(=O)c1ccccc1 [BzTyrOEt, benzoly-L-tyrosine ethyl ester]

Compound: α-Chymotrypsin (EC 3.4.21.1) from bovine pancreas, native soluble enzyme before immobilization (Bos taurus)
Km ([1]; soluble enzyme before immobilization): 2.74 mM
